Holding throughout (format): biochemical, Oryza sativa
Substrate in data set [1]: CC(C)=CCC/C(C)=C/CC/C(C)=C/CC/C(C)=C/C=C\C=C(/C)CC/C=C(\C)CC/C=C(\C)CCC=C(C)C
In words: Michaelis-Menten kinetics of purified enzyme in liposome assay (KM), HPLC. The note with it: FAD hydrophobic substrate cavity, C11-C12 near the flavin.

Substrate in data set [2]: CC(C)=CCC/C(C)=C/CC\C(C)=C/C=C/C(C)=C/C=C\C=C(/C)CC/C=C(\C)CC/C=C(\C)CCC=C(C)C
The description is as above. The note with it: FAD competes with phytoene at the active site.

Substrate in data set [3]: CCCCCCCCCCC1=CC(=O)C(C)=C(C)C1=O
In words: Michaelis-Menten kinetics of purified enzyme in liposome assay (KM). The note with it: FAD electron acceptor; same substrate cavity as the carotene, successively occupied, near the FAD.

Substrate in data set [4]: CCCCCCCCCCC1=CC(=O)C(C)=C(C)C1=O
In words: Michaelis-Menten kinetics of purified mutant in liposome assay (KM). The conditions noted are these: FAD electron acceptor; same substrate cavity as the carotene.

Substrate in data set [5]: CC(C)=CCC/C(C)=C/CC/C(C)=C/CC/C(C)=C/C=C\C=C(/C)CC/C=C(\C)CC/C=C(\C)CCC=C(C)C
Described as above. The conditions noted are these: FAD hydrophobic substrate cavity.

Positions count from the first letter of the chain named. Names and notes keep the numbering of the source.

Consider 2 proteins from PMC5703498, “Plant-type phytoene desaturase: Functional evaluation of structural implications” (PLoS ONE, 2017).

B1: Phytoene desaturase (OsPDS-His6) (Oryza sativa Indica Group) (protein)
chain: AGQLSSFFRNSEQPTKPLQVVIAGAGLAGLSTAKYLADAGHKPILLEARDVLGGKIAAWKDEDGDWYETGLHIFFGAYPNIQNLFGELGINDRLQWKEHSMIFAMPNKPGEFSRFDFPETLPAPLNGIWAILRNNEMLTWPEKVKFALGLLPAMVGGQAYVEAQDGFTVSEWMKKQGVPDRVNDEVFIAMSKALNFINPDELSMQCILIALNRFLQEKHGSKMAFLDGNPPERLCMPIVDHVRSLGGEVRLNSRIQKIELNPDGTVKHFALTDGTQITGDAYVFATPVDILKLLVPQEWKEISYFKKLEKLVGVPVINVHIWFDRKLKNTYDHLLFSRSSLLSVYADMSVTCKEYYDPNRSMLELVFAPAEEWVGRSDTEIIEATMQELAKLFPDEIAADQSKAKILKYHVVKTPRSVYKTIPDCEPCRPLQRSPIEGFYLAGDYTKQKYLASMEGAVLSGKLCAQSVVEDYKMLSRRSLKSLQSEVPVAS
In general, Km refers to the concentration of substrate that gives half-maximal velocity. As for B1, the Km in data set [1] was found to be 53.9 ± 18.1 mM; in data set [2], 66.8 ± 20.7 mM; in data set [3], 1.3 ± 0.2 mM.

B2: Phytoene desaturase (OsPDS-His6) (Oryza sativa Indica Group; R300S) (protein)
chain: B1 chain with R213S
Take B2: the Km in data set [4] came out at 0.4 ± 0.1 mM; in data set [5], 4.5 ± 2.6 mM.
